The text below walks through data of patent publication US20260116951A1 (DUCENTIS BIOTHERAPEUTICS, published 2026).

In assay [1] the target is T1, Human CD200R, full length, on transduced U937 cells (U937-CD200R) (human, UniProt Q8TD46 25-348).
T1 sequence (looked up): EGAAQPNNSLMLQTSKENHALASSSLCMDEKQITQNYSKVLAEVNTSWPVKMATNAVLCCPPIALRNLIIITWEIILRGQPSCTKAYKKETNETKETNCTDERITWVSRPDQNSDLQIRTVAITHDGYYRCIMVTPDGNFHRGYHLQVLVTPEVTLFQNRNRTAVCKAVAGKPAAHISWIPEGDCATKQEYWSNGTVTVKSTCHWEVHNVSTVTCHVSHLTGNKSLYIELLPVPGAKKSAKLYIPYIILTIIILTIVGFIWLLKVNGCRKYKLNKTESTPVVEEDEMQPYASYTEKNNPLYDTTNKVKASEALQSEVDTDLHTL
The experiment in a line: cell-based or functional assay.

The target of assay [2] is T2, Recombinant Human CD200R, His-tagged (Creative Biomart CD200R1-320H) (human, UniProt Q8TD46 27-266).
T2 construct: Bought; also called human CD200 receptor; not shown: His tag
T2 sequence (looked up): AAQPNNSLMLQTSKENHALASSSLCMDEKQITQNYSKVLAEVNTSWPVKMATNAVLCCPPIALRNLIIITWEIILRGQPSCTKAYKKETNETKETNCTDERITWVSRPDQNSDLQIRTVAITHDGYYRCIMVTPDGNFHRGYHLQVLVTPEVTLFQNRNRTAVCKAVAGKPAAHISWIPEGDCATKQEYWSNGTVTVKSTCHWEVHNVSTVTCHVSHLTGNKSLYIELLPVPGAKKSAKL
The experiment in a line: SPR (BIAcore T200), CD200-Fc captured on anti-human Fc, CD200R flowed, 25 C, 1:1 fit, mean of two runs. As to the method:
(§1) The experiments were performed on a GE Healthcare BIAcore T200. Human, cynomolgus and mouse CD200R proteins were purchased from Creative Biomart (CD200R1-320H, CD200R1-3483C, CD200R1-3280M). All measurements were performed in duplicate.
(§2) For human CD200 constructs: anti-human Fc (GE Healthcare) was covalently immobilized on a BIAcore CM5 sensor chip (Cytiva, BR100530) by amine coupling using a Cytiva kit (BR100839) following the manufacturer's instructions, targeting immobilization of 8,000-11,000 RU. CD200-Fc proteins were diluted to 0.5 μg/mL to 4 μg/mL in running Buffer (1×HBS-EP+pH7.4 (Cytiva BR100669), HEPES Buffered Saline pH 7.4 containing 3 mM EDTA and 0.05% v/v Surfactant P20) and flowed for 25 to 100 seconds at 10 μL/min over the immobilized Anti-Human IgG Fc, with a stabilization time of 60 seconds. Between 35 and 250 RUs of CD200-Fc were captured, with higher RUs used for cynomolgus CD200R binding experiments. […] Analysis temperature was 25° C. This was followed by regeneration of the surface with 30-90 second pulse of 3M MgCl₂ flowed at […] flow rate followed by stabilization of the surface with 60 second flow of running buffer.
(§3) For mouse CD200 constructs, muCD200R-Fc (Creative Biomart CD200R1-458M) diluted to 1 μg/mL in running buffer was flowed over the immobilized Anti-Human IgG Fc, with CD200 monomers serially diluted and flowed over captured CD200R. Other details were as above. Data analysis: experimental sensorgrams were analyzed in BIAevaluation software (GE Healthcare). The curves obtained were fitted to 1:1 Langmuir binding model by setting Rmax and RI as local parameters. Rate equations using standard parameters (e.g. ligand concentration, time) were used for iterative curve fitting. Closeness of fit was determined by algorithms provided by the manufacturer in the BIAevaluation software, and data accepted if the Chi² value was less than 10% of Rₘₐₓ, and the U value was less than or equal to 15.
For orientation: Surface plasmon resonance follows binding to a sensor surface in real time, without labels.

The target in another assay is T3, Human PBMCs.
T3 construct: No receptor was assigned; also called human PBMCs, gated on live cells
The experiment in a line: Flow cytometry, % binding on human PBMCs gated on live cells, 1 hour at 37 C, anti-human secondary antibody; the target protein on the cells is not named. As for the experimental part:
PBMC cells were re-suspended with a density of 0.1 million cells per assay point, with 50 μL FACS buffer (1×PBS+2% FBS). Dilutions of huCD200-Fc in 50 μL were added, starting at 10 μg/mL with 3-fold dilutions up to 10 concentrations with FACS buffer, and incubated for 1-hour at 37° C. At the end of each time point, cells were collected and washed (addition of 200 μL FACS buffer and centrifugation at 1400 RPM). 10 μg/mL of anti-human secondary antibody (Abcam Ab98596) was added together with excess Fc block (Innovex Biosciences no. NB309), and incubated for 30 minutes at 4° C. Cells were washed post incubation and stained to check viability (1 μL dye per million cells per mL 1×PBS, ThermoFisher C34557A) for 20 minutes at 4° C. Cells were washed and fixed with Fixation buffer (100 μL per test, BD Sciences 554655) at 4° C. for 20 minutes. Post incubation, cells were washed and the pellet was re-suspended in FACS buffer (100 μL per test) for data acquisition on the flow cytometer.
(In general: A flow cytometer gives signals particle by particle.)

The target in assay [3] is T2, Recombinant Human CD200R, His-tagged …. The experiment in a line: SPR (BIAcore T200), CD200-Fc captured on anti-human Fc, CD200R flowed, 25 C, 1:1 fit. As for the experimental part:
as §1
For human CD200 constructs: anti-human Fc (GE Healthcare) was covalently immobilized on a BIAcore CM5 sensor chip (Cytiva, BR100530) by amine coupling using a Cytiva kit (BR100839) following the manufacturer's instructions, targeting immobilization of 8,000-11,000 RU. CD200-Fc proteins were diluted to 0.5 μg/mL to 4 μg/mL in running Buffer (1×HBS-EP+pH7.4 (Cytiva BR100669), HEPES Buffered Saline pH 7.4 containing 3 mM EDTA and 0.05% v/v Surfactant P20) and flowed for 25 to 100 seconds at 10 μL/min over the immobilized Anti-Human IgG Fc, with a stabilization time of 60 seconds. […]
For mouse CD200 constructs, muCD200R-Fc (Creative Biomart CD200R1-458M) diluted to 1 μg/mL in running buffer was flowed over the immobilized Anti-Human IgG Fc, with CD200 monomers serially diluted and flowed over captured CD200R. […] Data analysis: experimental sensorgrams were analyzed in BIAevaluation software (GE Healthcare). […] Closeness of fit was determined by algorithms provided by the manufacturer in the BIAevaluation software, and data accepted if the Chi² value was less than 10% of Rₘₐₓ, and the U value was less than or equal to 15.

Assay [4] has the same target. The experiment in a line: SPR. An excerpt: (§4) Curves obtained were fitted to 1:1 Langmuir binding model by setting Rmax and RI as local parameters. Rate equations using standard parameters (e.g. ligand concentration, time) were used for iterative curve fitting. […] Means of 2 experiments carried out on the same day are shown with standard deviation. Residue numbering for CD200 proteins refers to the pre-protein, containing a signal peptide which is cleaved during insertion into the endoplasmic reticulum.

In assay [5] the target is T4, Recombinant Cyno CD200R, His-tagged (Creative Biomart CD200R1-3483C) (cynomolgus monkey).
T4 construct: Bought; also called cynomolgus CD200R1; cynomolgus CD200R
The experiment in a line: SPR, cyno CD200R1 flowed over immobilized CD200-Fc, 25 C, 1:1 fit, mean of 2 experiments with standard deviation. As for the experimental part:
as §2, §4

The target in assay [6] is T2, Recombinant Human CD200R, His-tagged …. The experiment in a line: SPR (BIAcore), DS-118 captured (0.5 ug/mL), HuCD200R1 flowed at 100 nM to 6.25 nM, 25 C, 1:1 Binding model, run 1. As for the experimental part: as §2, §3

B1: DS-118 (mutated human CD200-Fc fusion protein, K130Y, I131Y, IgG4 S228P Fc) (Fc fusion)
chain: QVQVVTQDEREQLYTPASLKCSLQNAQEALIVTWQKKKAVSPENMVTFSENHGVVIQPAYKDKINITQLGLQNSTITFWNITLEDEGCYMCLFNTFGFGYYSGTACLTVYVQPIVSLHYKFSEDHLNITCSATARPAPMVFWKVPRSGIENSTVTLSHPNGTTSVTSILHIKDPKNQVGKEVICQVLHLGTVTDFKQTVNKGPPCPPCPAPEFLGGPSVFLFPPKPKDTLMISRTPEVTCVVVDVSQEDPEVQFNWYVDGVEVHNAKTKPREEQFNSTYRVVSVLTVLHQDWLNGKEYKCKVSNKGLPSSIEKTISKAKGQPREPQVYTLPPSQEEMTKNQVSLTCLVKGFYPSDIAVEWESNGQPENNYKTTPPVLDSDGSFFLYSRLTVDKSRWQEGNVFSCSVMHEALHNHYTQKSLSLSLGK
notes: also called mutated CD200-Fc; mutant CD200-Fc
B1: the “inhibition of LPS stimulated IL-6 release from U937-CD200R cells, IC50” value in assay [1] is 0.01 µg/mL. Moreover, in assay [2], the Kd (commonly a measure of binding affinity in units of concentration) is 1.3 nM; the koff (usually the rate constant with which the complex falls apart) came out at 0.000304 s⁻¹; the kon (in general, the second-order rate constant of association) stood at 231000 M⁻¹ s⁻¹. It took 0.29 µg/mL to reach a half-maximal effect with Human PBMCs (EC50). For the same molecule, the t½ (commonly the time in which the quantity being followed falls by half) in assay [3] amounted to 37.9 min. In addition, the “fold increase in affinity from wild type” value in assay [4] was over 130 fold. The Kd in assay [5] came out at 206 nM. Also, in assay [6], the dissociation constant (Kd) amounted to 1.21 nM, the koff was determined as 0.000278 s⁻¹ and the kon is 230000 M⁻¹ s⁻¹.
